Sequences and labels used below:
B1: GA-binding protein alpha chain, residues 172 to 250; numbered along this chain, Q06546 (parent)
chain: GYRKEQERLGIPYDPIQWSTDQVLHWVVWVMKEFSMTDIDLTTLNISGRELCSLNQEDFFQRVPRGEILWSHLELLRKY

± gives the uncertainty stated by the source.

This series covers variants of B1. The series is described as follows: abundance fitness (aPCA) (normalised: wild type 0, dead -1); higher = more abundant; growth selection in yeast, the domain comes from the species named. The conditions noted are these: Homo sapiens.
For GYRKEQERLGIPYDPIQWSTDQVLHWVVWVMKEFFMTDIDLTTLNISGRELCSLNQEDFFQRVPRGEILWSHLELLRKY [S35F], the abundance fitness was -0.42 ± 0.086.

Take GYRKEQERLGIPYDPIQWSTDQVLHWVVWVMKEFIMTDIDLTTLNISGRELCSLNQEDFFQRVPRGEILWSHLELLRKY [S35I]: the abundance fitness is -0.781 ± 0.21.

Take GYRKEQERLGIPYDPIQWSTDQVLHWVVWVMKFFSMTDIDLTTLNISGRELCSLNQEDFFQRVPRGEILWSHLELLRKY [E33F]: the abundance fitness is -0.375 ± 0.071.

Take GYRKEQERLGIPYDPIQWSTDQVLHWVVWVMKIFSMTDIDLTTLNISGRELCSLNQEDFFQRVPRGEILWSHLELLRKY [E33I]: the abundance fitness was -0.767 ± 0.29.

For the variant GYRKEQERLGIPYDPIQWSTDQVLHWVVWVMKQFSMTDIDLTTLNISGRELCSLNQEDFFQRVPRGEILWSHLELLRKY [E33Q], the abundance fitness is -0.123 ± 0.066.

Consider GYRKEQERLGIPYDPIQWSTDQVLHWVVWVMKDFSMTDIDLTTLNISGRELCSLNQEDFFQRVPRGEILWSHLELLRKY [E33D], for which the abundance fitness came out at 0.021 ± 0.077.

For GYRKEQERLGIPYDPIQWSTDQVLHWVVWVMKPFSMTDIDLTTLNISGRELCSLNQEDFFQRVPRGEILWSHLELLRKY [E33P], the abundance fitness is -0.26 ± 0.051.

Turning to GYRKEQERLGIPYDPIQWSTDQVLHWVVWVMKKFSMTDIDLTTLNISGRELCSLNQEDFFQRVPRGEILWSHLELLRKY [E33K], the abundance fitness is -0.008 ± 0.065.

On to GYRKEQERLGIPYDPIQWSTDQVLHWVVWVMKTFSMTDIDLTTLNISGRELCSLNQEDFFQRVPRGEILWSHLELLRKY [E33T], for which the abundance fitness was -0.084 ± 0.056.

As for GYRKEQERLGIPYDPIQWSTDQVLHWVVWVMKYFSMTDIDLTTLNISGRELCSLNQEDFFQRVPRGEILWSHLELLRKY [E33Y], the abundance fitness is -0.257 ± 0.078.

As to GYRKEQERLGIPYDPIQWSTDQVLHWVVWVMKWFSMTDIDLTTLNISGRELCSLNQEDFFQRVPRGEILWSHLELLRKY [E33W], the abundance fitness was -0.566 ± 0.089.

For the variant GYRKEQERLGIPYDPIQWSTDQVLHWVVWVMKRFSMTDIDLTTLNISGRELCSLNQEDFFQRVPRGEILWSHLELLRKY [E33R], the abundance fitness is -0.031 ± 0.036.

For GYRKEQERLGIPYDPIQWSTDQVLHWVVWVMKCFSMTDIDLTTLNISGRELCSLNQEDFFQRVPRGEILWSHLELLRKY [E33C], the abundance fitness is -0.276 ± 0.063.

As to GYRKEQERLGIPYDPIQWSTDQVLHWVVWVMKHFSMTDIDLTTLNISGRELCSLNQEDFFQRVPRGEILWSHLELLRKY [E33H], the abundance fitness was -0.092 ± 0.074.

On to GYRKEQERLGIPYDPIQWSTDQVLHWVVWVMKGFSMTDIDLTTLNISGRELCSLNQEDFFQRVPRGEILWSHLELLRKY [E33G], for which the abundance fitness is -0.196 ± 0.032.

Turning to GYRKEQERLGIPYDPIQWSTDQVLHWVVWVMKSFSMTDIDLTTLNISGRELCSLNQEDFFQRVPRGEILWSHLELLRKY [E33S], the abundance fitness was -0.1 ± 0.037.

Consider GYRKEQERLGIPYDPIQWSTDQVLHWVVWVMKMFSMTDIDLTTLNISGRELCSLNQEDFFQRVPRGEILWSHLELLRKY [E33M], for which the abundance fitness is -0.337 ± 0.069.

As to GYRKEQERLGIPYDPIQWSTDQVLHWVVWVMKNFSMTDIDLTTLNISGRELCSLNQEDFFQRVPRGEILWSHLELLRKY [E33N], the abundance fitness was -0.202 ± 0.25.

On to GYRKEQERLGIPYDPIQWSTDQVLHWVVWVMKVFSMTDIDLTTLNISGRELCSLNQEDFFQRVPRGEILWSHLELLRKY [E33V], for which the abundance fitness was -0.277 ± 0.036.

In the case of GYRKEQERLGIPYDPIQWSTDQVLHWVVWVMKEESMTDIDLTTLNISGRELCSLNQEDFFQRVPRGEILWSHLELLRKY [F34E], the abundance fitness is -0.056 ± 0.057.

For GYRKEQERLGIPYDPIQWSTDQVLHWVVWVMKEQSMTDIDLTTLNISGRELCSLNQEDFFQRVPRGEILWSHLELLRKY [F34Q], the abundance fitness was -0.012 ± 0.08.

Take GYRKEQERLGIPYDPIQWSTDQVLHWVVWVMKEPSMTDIDLTTLNISGRELCSLNQEDFFQRVPRGEILWSHLELLRKY [F34P]: the abundance fitness was -0.605 ± 0.056.

On to GYRKEQERLGIPYDPIQWSTDQVLHWVVWVMKECSMTDIDLTTLNISGRELCSLNQEDFFQRVPRGEILWSHLELLRKY [F34C], for which the abundance fitness is -0.068 ± 0.068.

For GYRKEQERLGIPYDPIQWSTDQVLHWVVWVMKEASMTDIDLTTLNISGRELCSLNQEDFFQRVPRGEILWSHLELLRKY [F34A], the abundance fitness was -0.031 ± 0.037.

On to GYRKEQERLGIPYDPIQWSTDQVLHWVVWVMKEKSMTDIDLTTLNISGRELCSLNQEDFFQRVPRGEILWSHLELLRKY [F34K], for which the abundance fitness was determined as 0.015 ± 0.072.

As for GYRKEQERLGIPYDPIQWSTDQVLHWVVWVMKEMSMTDIDLTTLNISGRELCSLNQEDFFQRVPRGEILWSHLELLRKY [F34M], the abundance fitness is -0.175 ± 0.056.

Turning to GYRKEQERLGIPYDPIQWSTDQVLHWVVWVMKERSMTDIDLTTLNISGRELCSLNQEDFFQRVPRGEILWSHLELLRKY [F34R], the abundance fitness was -0.035 ± 0.032.

GYRKEQERLGIPYDPIQWSTDQVLHWVVWVMKEHSMTDIDLTTLNISGRELCSLNQEDFFQRVPRGEILWSHLELLRKY [F34H]: the abundance fitness is 0.077 ± 0.073.

For GYRKEQERLGIPYDPIQWSTDQVLHWVVWVMKEWSMTDIDLTTLNISGRELCSLNQEDFFQRVPRGEILWSHLELLRKY [F34W], the abundance fitness is -0.092 ± 0.047.

For the variant GYRKEQERLGIPYDPIQWSTDQVLHWVVWVMKETSMTDIDLTTLNISGRELCSLNQEDFFQRVPRGEILWSHLELLRKY [F34T], the abundance fitness is -0.061 ± 0.054.

As for GYRKEQERLGIPYDPIQWSTDQVLHWVVWVMKEYSMTDIDLTTLNISGRELCSLNQEDFFQRVPRGEILWSHLELLRKY [F34Y], the abundance fitness is 0.015 ± 0.098.

For GYRKEQERLGIPYDPIQWSTDQVLHWVVWVMKEGSMTDIDLTTLNISGRELCSLNQEDFFQRVPRGEILWSHLELLRKY [F34G], the abundance fitness was -0.117 ± 0.033.

As to GYRKEQERLGIPYDPIQWSTDQVLHWVVWVMKELSMTDIDLTTLNISGRELCSLNQEDFFQRVPRGEILWSHLELLRKY [F34L], the abundance fitness is -0.145 ± 0.039.

GYRKEQERLGIPYDPIQWSTDQVLHWVVWVMKESSMTDIDLTTLNISGRELCSLNQEDFFQRVPRGEILWSHLELLRKY [F34S]: the abundance fitness is -0.063 ± 0.044.

In the case of GYRKEQERLGIPYDPIQWSTDQVLHWVVWVMKENSMTDIDLTTLNISGRELCSLNQEDFFQRVPRGEILWSHLELLRKY [F34N], the abundance fitness is 0.081 ± 0.066.

Source of the values: the Human Domainome abundance scans (Beltran et al. 2025).
